For assay [1], the system named is carbepenam-resistant clinical isolate WC-453. In words: MIC in CAA without or with 25% human serum (Table 5). In kind it is cell-based, Pseudomonas aeruginosa. Details: CAA MIC: unit not given here. Particulars: for CAA/HuS MIC: CAA supplemented with 25% human serum. As for the experimental part:
MIC values were determined using a modification of the standard broth microdilution reference method defined by the Clinical and Laboratory Standards Institute (CLSI), CLSI. […] Methods for Dilution Antimicrobial Susceptibility Tests for Bacteria That Grow Aerobically; Approved Standard-10th Edition. Clinical and Laboratory Standards Institute, Wayne, Pa.

In assay [2] the test system is P. aeruginosa strain WC-453. In words: Time-kill assay in HEPES or CAA with 25% human serum (Tables 7, 8). Format: cell-based, Pseudomonas aeruginosa. Particulars: for bactericidal activity (CFU decrease of 3-Log10, 3 hours after the addition of lysin): 10 μg/mL, enumerated lysins in CAA/HuS, general statement for HEPES and CAA/HuS; for HEPES (Log10 CFU/mL), 1 hr / HEPES (Log10 CFU/mL), 3 hr: 25 mM HEPES pH 7.4; for HEPES (Log10 CFU/mL), 1 hr / HEPES (Log10 CFU/mL), 3 hr / CAA/HuS (Log10 CFU/mL), 1 hr / CAA/HuS (Log10 CFU/mL), 3 hr: lysin 10 μg/ml, WC-453; for CAA/HuS (Log10 CFU/mL), 1 hr / CAA/HuS (Log10 CFU/mL), 3 hr: CAA + 25% human serum. As for the experimental part:
Exponential phase bacteria were then pelleted and resuspended in 1/5 culture volume of 25 mM HEPES, pH 7.4 before a final adjustment to an optical density corresponding to a McFarland value of 0.5. […] All treatments were incubated at 37° C. with aeration. At time points before the addition of lysin (or buffer control) and at 1 hour and 3 hours intervals thereafter, culture samples were removed for quantitative plating on CAA agar plates.

Assay [3] concerns biofilms formed by P. aeruginosa strain ATCC 17646. To be noted: strain ATCC 17646 biofilm. The protocol:
Biofilms are then washed and treated with e.g., a 2-fold dilution series of the lysin in TSBg at e.g., 37° C. for 24 hours. After treatment, wells are washed, air-dried at e.g., 37° C. and stained with e.g., 0.05% crystal violet for 10 minutes.

The subject of another assay is P. aeruginosa. In words: MIC, modified CLSI broth microdilution in CAA medium without or with […] human serum (Table 4). On CAA/HuS MIC: CAA supplemented with 2.5% human serum. Format: cell-based, Pseudomonas aeruginosa. Particulars: for CAA MIC: CAA medium, no human serum; for CAA/HuS MIC: CAA supplemented with […] human serum. From the text: 2015. […] Clinical and Laboratory Standards Institute, Wayne, Pa.
Assay [4] relates to Pseudomonas aeruginosa strain CFS-1292 (meropenem resistant). Particulars: strain CFS-1292; no added cations. The protocol:
The activity of selected GN lysins and constructs in the presence of divalent cations was evaluated, and the impact of divalent cations at physiological concentrations was examined in the MIC assay format.

Bounds are passed on as bounds.

B1: GN83: AMP OBPgpLYS fused to the N-terminus of lysin GN4 (SEQ ID NO: 216) (protein)
chain: MKNSEKNASIIMSIQRTLASLSLYGGRIDGLFGEKCRGAIILMLNKVYPNFSTNKLPSNTYEAESVFTFLQTALAGVGLYTITIDGKWGGTSQGAIDALVKSYRQITEAERAGSTLPLGLATVMSTSQRGIDLIKSFEGLRLSAYQDSVGVWTIGYGTTRGVTRYMTITVEQAERMLSNDIQRFEPELDRLAKVPLNQNQWDALMSFVYNLGAANLASSTLLKLLNKGDYQGAADQFPRWVNAGGKRLDGLVKRRAAERALFLEPLS
modifications: OBG_GN4_2 (Lyz+C-term)
In the case of B1, in assay [1], the “activity in CAA supplemented with human serum (25%)” value (“activity … (25%)” below) is “repressed”, the “CAA MIC” value was over 128 and the “CAA/HuS MIC” value is reported as over 128. In assay [2], the “bactericidal activity (CFU decrease of 3-Log10, 3 hours after the addition of lysin)” value is on record as “bactericidal activity”; the “HEPES (Log10 CFU/mL), 1 hr” value is listed as under 3.7 Log10 CFU/mL; the “HEPES (Log10 CFU/mL), 3 hr” value was under 3.7 Log10 CFU/mL; the “CAA/HuS (Log10 CFU/mL), 1 hr” value is reported as 5.7 Log10 CFU/mL. Besides, the “CAA/HuS (Log10 CFU/mL), 3 hr” value in assay [2] is on record as under 3.7 Log10 CFU/mL. This molecule also yielded an MBEC in assay [3] of 1 µg/mL.

B2: GN80: dispersin B-like molecule (SEQ ID NO: 214) (protein, listed as Staphylococcus sciuri)
chain: MENIQKGITVDIARKSYSLETLKTIVKHIHDHNGQYLQLHFSDDENYAIESEYFDRKSFSNPYYLTKTEVKSLIEYSNDLNVMVIPDMDFPSHSKAFLSLIKQNDKSLYQEIISDYSDNTLDFFSNRKAVDVTNRQIDEITELFKQPQFAEQQRIVLGGDEVAGGGAHQNSFIEYMNQIGDYAFQQGYEPQMWNDMVTHEGVKSLNNHYSILYWKQNEDNKSNLTVEDFDKYYFDVYNYNYYSLYFLPSKQFSQDDINEQAEYIGWAYAYNKFYYNKNPYSEVNSQNVKGSALSFWGEHATDMTQEELINQEVPLIKVYFNLKK
As to B2, in assay [2], the “HEPES (Log10 CFU/mL), 1 hr” value came to 7.7 Log10 CFU/mL; the “HEPES (Log10 CFU/mL), 3 hr” value came out at 6.7 Log10 CFU/mL; the “CAA/HuS (Log10 CFU/mL), 1 hr” value was 6.7 Log10 CFU/mL; the “CAA/HuS (Log10 CFU/mL), 3 hr” value worked out at 7.0 Log10 CFU/mL. The molecule also registered an MBEC in assay [3] of 0.125 µg/mL.

B3: GN357: lysin-AMP construct: TAGGTAGG linker and RR12Whydro C-terminal to GN316 lysin (SEQ ID NO: 38) (protein)
chain: MAILKIGSKGLEVKNLQTSLNKIGFNLVADGIFGKATDNAVRAVQAGAGLVVDGIAGPKTMYAIRNAGESHQDHLTEADLIDAARELSVDLASIKAVNQVESRGTGFTKSGKIKTLFERHIMYKKLNAKFGQAKANALAQLYPTLVNAKAGGYTGGDAELERLHGAIAIDKDCAYESASYGLFQIMGFNCVICGYDNAEEMFNDFLTGERAQLMAFVKFIKADANLWKALKDKNWAEFARRYNGPAYAQNQYDTKLAAAYKSFSTAGGTAGGRRLIRLWLRLLR
In the case of B3, in the assay with P. aeruginosa, the “CAA MIC” value was 16 mg/mL and the “CAA/HuS MIC” value is listed as 0.25 mg/mL. Also, the “MIC in 25% CAA” value in assay [4] stood at 4 µg/mL. Moreover, in assay [2], the “bactericidal activity (CFU decrease of 3-Log10, 3 hours after the addition of lysin)” value is given as “bactericidal activity”; the “CAA/HuS (Log10 CFU/mL), 1 hr” value turned out to be 5.0 Log10 CFU/mL; the “CAA/HuS (Log10 CFU/mL), 3 hr” value was under 3.7 Log10 CFU/mL. Moreover, the MBEC in assay [3] was 0.5 µg/mL.

B4: GN76: lysin obtained from Acinetobacter phage vB_AbaP_CEB1 (SEQ ID NO: 203) (protein)
chain: MILTKDGFGIIRNELFGGKLDQTQVDAINFIVEKATESGLSYPEAAYLLATIYHETGLPSGYRTMQPIKEAGSDNYLRSKKYYPYIGYGYVQLTWKENYGRIGKLIGIDLIKNPEKALEPLIAIQIAIKGMLNGWFTGVGFRRKRPVSKYNKQQYIAARNIINGKDKAELIAKYAIIFERALRSL
modifications: Acinetobacter phage vB_AbaP_CEB1
B4: in assay [1], the “activity … (25%)” value is given as “active”, the “CAA MIC” value was 64 and the “CAA/HuS MIC” value worked out at 8. In addition, in assay [2], the “bactericidal activity (CFU decrease of 3-Log10, 3 hours after the addition of lysin)” value is “bactericidal activity”; the “HEPES (Log10 CFU/mL), 1 hr” value was under 3.7 Log10 CFU/mL; the “HEPES (Log10 CFU/mL), 3 hr” value is on record as under 3.7 Log10 CFU/mL; the “CAA/HuS (Log10 CFU/mL), 1 hr” value came to 5.7 Log10 CFU/mL. The “CAA/HuS (Log10 CFU/mL), 3 hr” value in assay [2] is on record as under 3.7 Log10 CFU/mL. The same molecule registered an MBEC in assay [3] of 0.125 µg/mL.

B5: GN122: lysin obtained from Pseudomonas putida strain PA14H7 (SEQ ID NO: 218) (protein, listed as Pseudomonas putida)
chain: MSIFSFVKEAGEKLIDLLTPGNANASEQLKEHVSKVGLGNPNIQTTVEGSKVTVTGEVASQEEKEKILLALGNIAGVESVDDQITVTGPLVAAARFVVVKKGDTLSAISLAVYGNANQYNKIFEANKPLLSHPDKIYPGQTLRIPE
On to B5, for which, in assay [1], the “activity … (25%)” value is “active”, the “CAA MIC” value stood at 2 and the “CAA/HuS MIC” value worked out at 2. In assay [2], the “HEPES (Log10 CFU/mL), 1 hr” value is 7.7 Log10 CFU/mL; the “HEPES (Log10 CFU/mL), 3 hr” value turned out to be 5.4 Log10 CFU/mL; the “CAA/HuS (Log10 CFU/mL), 1 hr” value worked out at 6.7 Log10 CFU/mL; the “CAA/HuS (Log10 CFU/mL), 3 hr” value is 6.7 Log10 CFU/mL. This molecule yielded an MBEC in assay [3] of 1 µg/mL.

B6: GN93: lysin-AMP construct: cationic peptide (SEQ ID NO: 120) and linker N-terminal to GN14 lysin (SEQ ID NO: 62) (protein)
chain: MKFFKFFKFFKAGAGAGAGAGAGAGAGASNNELPWVAEARKYIGLREDTSKTSHNPKLLAMLDRMGEFSNESRAWWHDDETPWCGLFVGYCLGVAGRYVVREWYRARAWEAPQLTKLDRPAYGALVTFTRSGGGHVGFIVGKDARGNLMVLGGNQSNAVSIAPFAVSRVTGYFWPSFWRNKTAVKSVPFEERYSLPLLKSNGELSTNEA
For B6, in the assay on P. aeruginosa, the “CAA MIC” value came out at 128 mg/mL and the “CAA/HuS MIC” value came out at 8 mg/mL. In addition, in assay [1], the “activity … (25%)” value is recorded as “active”, the “CAA MIC” value was 128 and the “CAA/HuS MIC” value stood at 8. Further, in assay [2], the “bactericidal activity (CFU decrease of 3-Log10, 3 hours after the addition of lysin)” value is “bactericidal activity”; the “HEPES (Log10 CFU/mL), 1 hr” value turned out to be 6.0 Log10 CFU/mL; the “HEPES (Log10 CFU/mL), 3 hr” value is given as under 3.7 Log10 CFU/mL; the “CAA/HuS (Log10 CFU/mL), 1 hr” value came out at 6.6 Log10 CFU/mL. The “CAA/HuS (Log10 CFU/mL), 3 hr” value in assay [2] is reported as under 3.7 Log10 CFU/mL. This molecule also displayed an MBEC in assay [3] of 0.125 µg/mL.

B7: GN217: GN37 lysin with amino acid substitution R79H (SEQ ID NO: 8) (protein)
chain: MTYTLSKRSLDNLKGVHPDLVAVVHRAIQLTPVDFAVIEGLRSVSRQKELVAAGASKTMNSRHLTGHAVDLAAYVNGIHWDWPLYDAIAVAVKAAAKELGVAIVWGGDWTTFKDGPHFELDRSKYR
As to B7, in the assay with P. aeruginosa, the “CAA MIC” value turned out to be 4 mg/mL and the “CAA/HuS MIC” value was 0.125 mg/mL. Moreover, in the assay with P. aeruginosa (CAA with and without human serum, parent GN316 or GN37), the “effect of the structural modification on activity (as assessed by MIC) versus the parent lysin” value is “improves its potency over GN37 both in the absence and presence of human serum”. In assay [3], the MBEC was determined as 0.5 µg/mL.

The values are drawn from patent US20210324359A1, “USE OF GRAM-NEGATIVE LYSIN-ANTIMICROBIAL PEPTIDE (AMP) POLYPEPTIDE CONSTRUCTS IN TREATING ENDOCARDITIS” (priority 2020, published 2021).
